Assay [1] concerns the target T1, human CD30 (human, UniProt P28908 19-595).
T1 construct: also called huCD30; TNFRSF8
T1 sequence: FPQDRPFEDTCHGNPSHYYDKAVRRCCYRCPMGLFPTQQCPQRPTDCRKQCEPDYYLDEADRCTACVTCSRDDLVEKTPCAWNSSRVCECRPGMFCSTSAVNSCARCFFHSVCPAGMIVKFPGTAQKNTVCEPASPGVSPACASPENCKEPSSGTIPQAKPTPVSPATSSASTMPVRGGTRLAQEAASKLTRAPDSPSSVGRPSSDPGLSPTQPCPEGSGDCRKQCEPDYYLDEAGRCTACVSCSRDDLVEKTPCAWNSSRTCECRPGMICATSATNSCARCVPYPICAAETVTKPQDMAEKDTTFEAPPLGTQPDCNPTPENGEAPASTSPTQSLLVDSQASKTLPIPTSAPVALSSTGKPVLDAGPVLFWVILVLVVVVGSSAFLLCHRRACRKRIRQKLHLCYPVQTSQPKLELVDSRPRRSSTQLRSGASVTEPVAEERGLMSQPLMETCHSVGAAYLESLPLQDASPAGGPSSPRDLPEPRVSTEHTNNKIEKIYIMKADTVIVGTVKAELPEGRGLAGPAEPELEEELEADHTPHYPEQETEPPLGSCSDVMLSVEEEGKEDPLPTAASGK
Kind of assay: flow cytometry, SU-DHL-1 cells. A digest of the protocol: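 CD3×CD30 bispecific antibodies, serially diluted 3-fold from 10 to 0.0046 μg/mL, were incubated with 3×10⁴ cells/well at 4° C for 30 min, then with a secondary antibody at 4° C for 30 min. Live cells were gated by FSC/SSC and TO-PRO-3 exclusion, and curves were fitted by four-parameter sigmoidal regression.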

Assay [2] concerns the target T1, human CD30. The experiment in a line: flow cytometry, DEL cells, experiment N = 2. In general terms: In flow cytometry, cells or beads pass a laser one at a time.
In assay [3] the target is T1, human CD30. Kind of assay: flow cytometry, L-428 cells, experiment N = 1.
Assay [4] has as its target T1, human CD30. The experiment in a line: flow cytometry, L-428 cells (HL), range of 2 tests. As to the method:
(§1) Cells (3×10⁴ cells/well) were incubated in polystyrene 96-well round-bottom plates (Greiner bio-one, cat. no. 650180) with serial dilutions of antibodies (range 0.0046 to 10 μg/mL in 3-fold dilution steps) in 50 μL staining buffer at 4° C. for 30 min. After washing twice in staining buffer, cells were incubated with 50 μL secondary antibody at 4° C. for 30 min. […] Next, cells were washed twice in staining buffer, resuspended in 100 μL staining buffer supplemented with TO-PRO-3 iodide (Thermo Fisher Scientific; cat. no. T3605; 1:8000 dilution) and analyzed on a FACSCelesta flow cytometer (BD Biosciences, USA). Live cells were gated based on FSC/SSC and absence of TOPRO-3 staining. Binding curves were analyzed by non-linear regression of log-transformed data (sigmoidal dose-response with variable slope, four parameters) using GraphPad Prism V7.02 software (GraphPad Software, San Diego, CA, USA).

In assay [5] the target is T1, human CD30. The experiment in a line: flow cytometry, DL-40 cells (ALCL), range of 3 tests. As to the method:
as §1

Assay [6] addresses T1, human CD30. Kind of assay: flow cytometry, KM-H2 cells (HL), average of 3 tests. The method, then:
as §1

Assay [7] concerns the target T1, human CD30. The experiment in a line: flow cytometry, L-1236 cells (HL), average of 3 tests. The method, then:
as §1

In assay [8] the target is T2, complement protein C1q (human, UniProt P02745 23-245; P02746 28-253; P02747 29-245).
T2 construct: 20% human serum was used as the source of C1q
T2 sequence (P02745 23-245 limits assumed, chain 1 of 3): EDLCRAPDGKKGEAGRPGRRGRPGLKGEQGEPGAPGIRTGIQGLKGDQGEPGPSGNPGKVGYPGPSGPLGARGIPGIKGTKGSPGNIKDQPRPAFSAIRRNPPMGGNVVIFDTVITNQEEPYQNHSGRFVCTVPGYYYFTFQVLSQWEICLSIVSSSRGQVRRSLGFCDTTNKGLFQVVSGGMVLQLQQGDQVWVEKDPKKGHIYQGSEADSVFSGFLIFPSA
T2 sequence (P02746 28-253 limits assumed, chain 2 of 3): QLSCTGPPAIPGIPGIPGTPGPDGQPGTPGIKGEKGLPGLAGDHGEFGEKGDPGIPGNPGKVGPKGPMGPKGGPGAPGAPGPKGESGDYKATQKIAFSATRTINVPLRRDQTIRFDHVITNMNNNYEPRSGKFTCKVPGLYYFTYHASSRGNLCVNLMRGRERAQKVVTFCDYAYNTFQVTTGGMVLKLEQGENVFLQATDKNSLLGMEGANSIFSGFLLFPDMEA
T2 sequence (P02747 29-245 limits assumed, chain 3 of 3): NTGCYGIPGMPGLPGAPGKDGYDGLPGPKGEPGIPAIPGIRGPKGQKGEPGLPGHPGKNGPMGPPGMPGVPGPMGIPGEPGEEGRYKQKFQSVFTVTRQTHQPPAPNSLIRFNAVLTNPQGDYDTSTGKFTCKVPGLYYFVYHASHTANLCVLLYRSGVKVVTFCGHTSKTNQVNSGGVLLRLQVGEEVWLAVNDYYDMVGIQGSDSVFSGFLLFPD
The experiment in a line: flow cytometry with FITC anti-C1q; antibody-opsonized activated human CD8+ T cells, 20% normal human serum as the source of C1q. As to the method: Activated CD8⁺ T cells were seeded in a round-bottom 96-well plate (30,000 cells/well), pelleted, and resuspended in 30 μL assay medium (RPMI-1640 with 25 mM HEPES and L-glutamine, supplemented with 0.1% [w/v] bovine serum albumin fraction V (BSA; Roche, cat. no. 10735086001) and penicillin/streptomycin).
Human serum (20 μL/well; Sanquin, lot 20L15-02), as a source of C1q, was added to a final concentration of 20%. Cells were incubated on ice for 45 min, followed by two washes with cold GMB FACS buffer and incubation with 50 μL fluorescein isothiocyanate (FITC)-conjugated rabbit anti-human C1q (final concentration of 20 μg/mL (DAKO, cat no. F0254); diluted 1:75 in GMB FACS buffer) in the presence or absence of allophycocyanin-conjugated mouse-anti-CD8 (BD Biosciences, cat. no. 555369; diluted 1:50 in GMB FACS buffer) in the dark at 4° C. for 30 min. […] C1q binding to viable cells (as identified by DAPI exclusion) was analyzed by flow cytometry on an iQue3 Screener (Intellicyt Corporation). Data were analyzed using iQue software (Intellicyt Corporation, ForeCyt® Enterprise Client Edition 6.2 [R3], Version 6.2.652).

B1: bsG1-huCD3-FEALxCD30-MDX060-FEAR (bispecific antibody, human IgG1, kappa, lambda)
heavy 1: not shown
light 1: not shown
heavy 2: QVQLQQWGAGLLKPSETLSLTCAVYGGSFSAYYWSWIRQPPGKGLEWIGDINHGGGTNYNPSLKSRVTISVDTSKNQFSLKLNSVTAADTAVYYCASLTAYWGQGSLVTVSSASTKGPSVFPLAPSSKSTSGGTAALGCLVKDYFPEPVTVSWNSGALTSGVHTFPAVLQSSGLYSLSSVVTVPSSSLGTQTYICNVNHKPSNTKVDKRVEPKSCDKTHTCPPCPAPEFEGGPSVFLFPPKPKDTLMISRTPEVTCVVVAVSHEDPEVKFNWYVDGVEVHNAKTKPREEQYNSTYRVVSVLTVLHQDWLNGKEYKCKVSNKALPAPIEKTISKAKGQPREPQVYTLPPSREEMTKNQVSLTCLVKGFYPSDIAVEWESNGQPENNYKTTPPVLDSDGSFFLYSRLTVDKSRWQQGNVFSCSVMHEALHNHYTQKSLSLSPG
light 2: DIQMTQSPTSLSASVGDRVTITCRASQGISSWLTWYQQKPEKAPKSLIYAASSLQSGVPSRFSGSGSGTDFTLTISSLQPEDFATYYCQQYDSYPITFGQGTRLEIKRTVAAPSVFIFPPSDEQLKSGTASVVCLLNNFYPREAKVQWKVDNALQSGNSQESVTEQDSKDSTYSLSSTLTLSKADYEKHKVYACEVTHQGLSSPVTKSFNRGEC
notes: also called bsG1-huCD3xCD30-MDX060
For the molecule B1, the EC50 (read off the curve) (in general, the concentration at which the effect is half-maximal) in assay [1] is approximately 0.4 µg/mL. Further, the EC50 – broadly, the concentration that produces a half-maximal response – came to 0.0568 µg/mL in assay [2] and 0.154 µg/mL in assay [3].

B2: bsG1-huCD3-FEALxCD30-MDX060-FERR (bispecific antibody, human IgG1, kappa, lambda)
heavy 1: not shown
light 1: not shown
heavy 2: QVQLQQWGAGLLKPSETLSLTCAVYGGSFSAYYWSWIRQPPGKGLEWIGDINHGGGTNYNPSLKSRVTISVDTSKNQFSLKLNSVTAADTAVYYCASLTAYWGQGSLVTVSSASTKGPSVFPLAPSSKSTSGGTAALGCLVKDYFPEPVTVSWNSGALTSGVHTFPAVLQSSGLYSLSSVVTVPSSSLGTQTYICNVNHKPSNTKVDKRVEPKSCDKTHTCPPCPAPEFERGPSVFLFPPKPKDTLMISRTPEVTCVVVDVSHEDPEVKFNWYVDGVEVHNAKTKPREEQYNSTYRVVSVLTVLHQDWLNGKEYKCKVSNKALPAPIEKTISKAKGQPREPQVYTLPPSREEMTKNQVSLTCLVKGFYPSDIAVEWESNGQPENNYKTTPPVLDSDGSFFLYSRLTVDKSRWQQGNVFSCSVMHEALHNHYTQKSLSLSPG
light 2: DIQMTQSPTSLSASVGDRVTITCRASQGISSWLTWYQQKPEKAPKSLIYAASSLQSGVPSRFSGSGSGTDFTLTISSLQPEDFATYYCQQYDSYPITFGQGTRLEIKRTVAAPSVFIFPPSDEQLKSGTASVVCLLNNFYPREAKVQWKVDNALQSGNSQESVTEQDSKDSTYSLSSTLTLSKADYEKHKVYACEVTHQGLSSPVTKSFNRGEC
notes: Bispecific IgG1 made by controlled Fab-arm exchange; also called bsIgG1-huCD3-FEALxCD30-MDX060-FERR; bsG1-huCD3×CD30-MDX060
B2: the EC50 was 0.174 µg/mL in assay [4], 0.17 to 0.347 µg/mL in assay [5], 0.159 µg/mL in assay [6] and 0.202 µg/mL in assay [7]. For the same molecule, the binding result in assay [8] was “no binding (tested: about 30 µg/mL)”.

The values are drawn from patent US20260234255A1 (Genmab, published 2026).
